T1: topo VI KGRR-EEE (Methanosarcina mazei, UniProt Q8PUB7;Q8PUB8 1-369;1-621, K186E;R188E;R189E)
T1 sequence 1: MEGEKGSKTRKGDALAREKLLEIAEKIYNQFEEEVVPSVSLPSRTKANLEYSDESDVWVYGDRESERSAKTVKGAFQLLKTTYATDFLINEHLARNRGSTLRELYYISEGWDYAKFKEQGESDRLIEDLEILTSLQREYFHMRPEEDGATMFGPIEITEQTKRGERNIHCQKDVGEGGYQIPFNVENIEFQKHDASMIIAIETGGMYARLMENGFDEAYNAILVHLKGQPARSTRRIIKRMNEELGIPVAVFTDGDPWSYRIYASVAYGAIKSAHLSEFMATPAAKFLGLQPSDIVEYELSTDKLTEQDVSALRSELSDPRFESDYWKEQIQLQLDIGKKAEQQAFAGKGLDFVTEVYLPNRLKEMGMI
T1 sequence 2: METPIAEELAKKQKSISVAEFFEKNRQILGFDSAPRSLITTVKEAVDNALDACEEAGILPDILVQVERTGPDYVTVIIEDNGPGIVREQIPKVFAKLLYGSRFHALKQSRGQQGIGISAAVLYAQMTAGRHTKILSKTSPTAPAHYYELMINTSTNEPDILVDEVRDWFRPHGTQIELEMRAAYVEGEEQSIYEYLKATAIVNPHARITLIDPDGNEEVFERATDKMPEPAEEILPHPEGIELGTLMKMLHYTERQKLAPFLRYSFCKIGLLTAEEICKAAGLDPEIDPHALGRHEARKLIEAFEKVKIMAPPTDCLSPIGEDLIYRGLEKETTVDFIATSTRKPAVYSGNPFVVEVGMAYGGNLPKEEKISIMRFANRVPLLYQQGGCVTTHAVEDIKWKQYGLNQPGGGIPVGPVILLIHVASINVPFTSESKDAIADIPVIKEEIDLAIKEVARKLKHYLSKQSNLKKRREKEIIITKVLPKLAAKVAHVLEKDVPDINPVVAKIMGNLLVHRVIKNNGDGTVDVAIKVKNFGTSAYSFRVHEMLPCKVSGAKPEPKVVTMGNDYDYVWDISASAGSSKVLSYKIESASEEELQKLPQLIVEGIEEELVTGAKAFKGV

T2: topo VI KGRR-AAA (Methanosarcina mazei, UniProt Q8PUB7;Q8PUB8 1-369;1-621, K186A;R188A;R189A)
T2 sequence 1: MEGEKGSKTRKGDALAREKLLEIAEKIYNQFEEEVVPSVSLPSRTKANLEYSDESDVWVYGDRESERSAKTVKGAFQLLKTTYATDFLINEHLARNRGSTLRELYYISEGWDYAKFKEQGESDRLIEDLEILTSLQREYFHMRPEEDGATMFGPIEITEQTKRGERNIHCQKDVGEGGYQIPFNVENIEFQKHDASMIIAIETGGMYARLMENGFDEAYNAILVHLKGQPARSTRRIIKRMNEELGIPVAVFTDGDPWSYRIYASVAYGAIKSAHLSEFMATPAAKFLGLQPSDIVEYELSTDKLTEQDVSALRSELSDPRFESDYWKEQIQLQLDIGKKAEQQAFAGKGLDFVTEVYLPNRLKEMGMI
T2 sequence 2: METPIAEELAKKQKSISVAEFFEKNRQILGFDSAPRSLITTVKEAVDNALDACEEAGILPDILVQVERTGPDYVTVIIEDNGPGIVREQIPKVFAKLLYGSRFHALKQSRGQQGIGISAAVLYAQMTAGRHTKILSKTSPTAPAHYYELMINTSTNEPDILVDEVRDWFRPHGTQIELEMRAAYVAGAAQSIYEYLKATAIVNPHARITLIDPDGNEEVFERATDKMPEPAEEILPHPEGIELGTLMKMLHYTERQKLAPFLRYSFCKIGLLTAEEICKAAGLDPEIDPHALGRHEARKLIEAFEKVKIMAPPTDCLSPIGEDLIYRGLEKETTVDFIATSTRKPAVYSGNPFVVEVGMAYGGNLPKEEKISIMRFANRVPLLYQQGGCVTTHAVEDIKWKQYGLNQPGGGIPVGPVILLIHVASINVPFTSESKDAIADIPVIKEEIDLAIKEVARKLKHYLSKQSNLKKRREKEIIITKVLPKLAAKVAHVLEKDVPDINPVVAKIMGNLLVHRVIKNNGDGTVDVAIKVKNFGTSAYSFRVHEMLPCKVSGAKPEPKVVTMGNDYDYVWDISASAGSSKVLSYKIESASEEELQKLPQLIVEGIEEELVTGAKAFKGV


What was measured:
topo VI KGRR-EEE [1] = target: T1, topo VI KGRR-EEE; assay: fluorescence anisotropy; FA: 20 nM probe, 50 mM K-glutamate, 20 mM HEPES-KOH pH 7.5, 10 mM MgCl2, 5% glycerol, 1 mM TCEP, 0.1 mg/mL BSA; incubated on ice, read at ambient temperature; competition with 100 nM enzyme; settings: protein: recombinant; tags: N-terminal His6-TEV on Top6B, removed; chain copies: 2;2; label: 5'-FAM strand 1; blunt
topo VI KGRR-AAA [2] = target: T2, topo VI KGRR-AAA; assay: as above; settings: protein: recombinant; tags: N-terminal His6-TEV on Top6B, removed; chain copies: 2;2; label: 5'-FAM strand 1; blunt
topo VI KGRR-EEE [3] = target: T1, topo VI KGRR-EEE; assay: fluorescence anisotropy; 10 mM Mg2+; ambiguous, poorly defined dFAmax; FA: 20 nM probe, 50 mM K-glutamate, 20 mM HEPES-KOH pH 7.5, 10 mM MgCl2, 5% glycerol, 1 mM TCEP, 0.1 mg/mL BSA; incubated on ice, read at ambient temperature; competition with 100 nM enzyme; settings: protein: recombinant; tags: N-terminal His6-TEV on Top6B, removed; chain copies: 2;2; label: 5'-FAM on S1; four-way Holliday junction, stacked-X, two GAAA-capped arms
topo VI KGRR-AAA [4] = target: T2, topo VI KGRR-AAA; assay: as above; settings: protein: recombinant; tags: N-terminal His6-TEV on Top6B, removed; chain copies: 2;2; label: 5'-FAM on S1; four-way Holliday junction, stacked-X, two GAAA-capped arms

Row | Binder | Kd (topo VI KGRR-EEE [1]) [nM] | Kd (topo VI KGRR-AAA [2]) [nM] | Kd (topo VI KGRR-EEE [3]) [nM] | Kd (topo VI KGRR-AAA [4]) [nM]
1 | 60 bp duplex (dsDNA) DNA 1: CGCTTCAATAATATTGAAAAAGGAAGAGTATGAGTATTCAACATTTCCGTGTCGCCCTTC DNA 2: GAAGGGCGACACGGAAATGTTGAATACTCATACTCTTCCTTTTTCAATATTATTGAAGCG | 119 ± 3 | 99 ± 2 | – | –
2 | 16 x 20 bp stacked junction (structured_DNA) DNA 1: CGAATACTCAGCTCAACCGAAAGGTTGAGCCTTCGCTCGAAAGAGCGAAGTACTCTTCCG DNA 2: CGGAAGAGTATGAGTATTCG | – | – | ~1460 | ~758

Reference: PMC5922973, “Topoisomerase VI senses and exploits both DNA crossings and bends to facilitate strand passage” (eLife, 2018)
